Each block holds one binder with its values, some of them ahead of it.
Key:
Assay in all cases: two-hybrid library CCmax;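 further: natural log of median RNA to DNA barcode read ratio; higher means stronger binding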
APC8401-AA = molecular target: T1, APC8401-AA; conditions: mean of both orientations
T1 chain: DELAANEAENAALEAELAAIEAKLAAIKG

APC1115-AA = molecular target: T2, APC1115-AA
T2 chain: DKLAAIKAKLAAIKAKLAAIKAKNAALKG

APC2474-AA = molecular target: T3, APC2474-AA; conditions: mean of both orientations
T3 chain: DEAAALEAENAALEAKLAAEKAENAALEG

APC2811-AA = molecular target: T4, APC2811-AA; conditions: mean of both orientations
T4 chain: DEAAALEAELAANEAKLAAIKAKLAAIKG

APC4100-AA = molecular target: T5, APC4100-AA; conditions: mean of both orientations
T5 chain: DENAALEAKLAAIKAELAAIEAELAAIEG

APC9141-AA = molecular target: T6, APC9141-AA; conditions: mean of both orientations
T6 chain: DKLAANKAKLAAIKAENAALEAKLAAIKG

APC1242-AA = molecular target: T7, APC1242-AA; conditions: mean of both orientations
T7 chain: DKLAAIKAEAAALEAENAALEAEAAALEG

APC7524-AA = molecular target: T8, APC7524-AA; conditions: mean of both orientations
T8 chain: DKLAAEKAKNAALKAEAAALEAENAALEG

APC2724-AA = molecular target: T9, APC2724-AA; conditions: mean of both orientations
T9 chain: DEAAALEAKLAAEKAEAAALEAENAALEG

APC1987-AA = molecular target: T10, APC1987-AA; conditions: mean of both orientations
T10 chain: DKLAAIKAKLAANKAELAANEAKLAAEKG

APC2257-AA = molecular target: T11, APC2257-AA; conditions: mean of both orientations
T11 chain: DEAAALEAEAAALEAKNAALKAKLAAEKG

APC2375-AA = molecular target: T12, APC2375-AA; conditions: mean of both orientations
T12 chain: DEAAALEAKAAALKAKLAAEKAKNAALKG

APC3354-AA = molecular target: T13, APC3354-AA; conditions: mean of both orientations
T13 chain: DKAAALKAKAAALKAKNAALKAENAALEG

APC9182-AA = molecular target: T14, APC9182-AA; conditions: mean of both orientations
T14 chain: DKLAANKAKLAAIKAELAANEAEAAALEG

APC9806-AA = molecular target: T15, APC9806-AA; conditions: mean of both orientations
T15 chain: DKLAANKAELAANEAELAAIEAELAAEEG

APC3881-AA = molecular target: T16, APC3881-AA; conditions: mean of both orientations
T16 chain: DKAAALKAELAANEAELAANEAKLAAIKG

APC8516-AA = molecular target: T17, APC8516-AA; conditions: mean of both orientations
T17 chain: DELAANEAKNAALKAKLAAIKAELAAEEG

APC5531-AA = molecular target: T18, APC5531-AA; conditions: mean of both orientations
T18 chain: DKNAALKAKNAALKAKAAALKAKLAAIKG

APC2543-AA = molecular target: T19, APC2543-AA; conditions: mean of both orientations
T19 chain: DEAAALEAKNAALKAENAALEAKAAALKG

APC4336-AA = molecular target: T20, APC4336-AA; conditions: mean of both orientations
T20 chain: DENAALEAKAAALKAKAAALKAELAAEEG

APC6088-AA = molecular target: T21, APC6088-AA; conditions: mean of both orientations
T21 chain: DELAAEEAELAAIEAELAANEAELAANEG

APC2981-AA = molecular target: T22, APC2981-AA; conditions: mean of both orientations
T22 chain: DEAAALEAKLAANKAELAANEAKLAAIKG

APC5009-AA = molecular target: T23, APC5009-AA; conditions: mean of both orientations
T23 chain: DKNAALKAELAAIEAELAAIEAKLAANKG

APC2556-AA = molecular target: T24, APC2556-AA; conditions: mean of both orientations
T24 chain: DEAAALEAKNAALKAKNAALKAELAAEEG

APC3323-AA = molecular target: T25, APC3323-AA; conditions: mean of both orientations
T25 chain: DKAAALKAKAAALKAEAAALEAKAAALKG

APC542-AA = molecular target: T26, APC542-AA; conditions: mean of both orientations
T26 chain: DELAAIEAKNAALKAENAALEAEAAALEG

APC222-AA = molecular target: T27, APC222-AA; conditions: mean of both orientations
T27 chain: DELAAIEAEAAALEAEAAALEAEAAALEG

APC1916-AA = molecular target: T28, APC1916-AA; conditions: mean of both orientations
T28 chain: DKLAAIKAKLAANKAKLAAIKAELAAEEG

APC9291-AA = molecular target: T29, APC9291-AA; conditions: mean of both orientations
T29 chain: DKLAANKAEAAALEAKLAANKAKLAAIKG

APC3265-AA = molecular target: T30, APC3265-AA; conditions: mean of both orientations
T30 chain: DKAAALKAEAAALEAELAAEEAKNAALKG

Core_ININ-es_KEEE = molecular target: T31, Core_ININ-es_KEEE; conditions: mean of both orientations
T31 chain: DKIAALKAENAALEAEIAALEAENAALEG

interaction score (APC8401-AA): -1.04
interaction score (APC1115-AA): -0.803
interaction score (APC2474-AA): -1.58
interaction score (APC2811-AA): -1.19
interaction score (APC4100-AA): 0.913
interaction score (APC9141-AA): -1.58
interaction score (APC1242-AA): -1.35
interaction score (APC7524-AA): -1.68
interaction score (APC2724-AA): -1.69
interaction score (APC1987-AA): -1.74
interaction score (APC2257-AA): -1.42
interaction score (APC2375-AA): -1.67
interaction score (APC3354-AA): -1.93
interaction score (APC9182-AA): -1.98
interaction score (APC9806-AA): -1.67
interaction score (APC3881-AA): -1.47
interaction score (APC8516-AA): -1.51
interaction score (APC5531-AA): -1.86
interaction score (APC2543-AA): -1.49
interaction score (APC4336-AA): -1.61
interaction score (APC6088-AA): -1.12
interaction score (APC2981-AA): -1.43
interaction score (APC5009-AA): -0.451
interaction score (APC2556-AA): -1.69
interaction score (APC3323-AA): -1.52
interaction score (APC542-AA): -1.93
interaction score (APC222-AA): 0.216
interaction score (APC1916-AA): -1.84
interaction score (APC9291-AA): -1.83
interaction score (APC3265-AA): -1.52
Binder: DKLAAIKAKLAAIKAKLAAIKAKNAALKG [APC1115-AA]

interaction score (Core_ININ-es_KEEE): 2.37
Binder: DEIAALEAKNAALKAKIAALKAKNAALKG [Core_ININ-es_EKKK]
